From patent US20260035468A1 (INSTITUT NATIONAL DE LA SANT ET DE LA RECHERCHE M DICALE, published 2026)

Biological target: T1, β8 chain of αvβ8 integrin (Itgβ8) expressed on human tumor Treg cells (human, UniProt P26012 43-769; P06756 31-1048)
T1 construct: whole, on cells; also called Itgb8 chain on human Treg cells; human Itgβ8
Assay: staining of cells of one fresh human colonic tumor (data not shown)

T1 sequence (P26012 43-769, chain 1 of 2): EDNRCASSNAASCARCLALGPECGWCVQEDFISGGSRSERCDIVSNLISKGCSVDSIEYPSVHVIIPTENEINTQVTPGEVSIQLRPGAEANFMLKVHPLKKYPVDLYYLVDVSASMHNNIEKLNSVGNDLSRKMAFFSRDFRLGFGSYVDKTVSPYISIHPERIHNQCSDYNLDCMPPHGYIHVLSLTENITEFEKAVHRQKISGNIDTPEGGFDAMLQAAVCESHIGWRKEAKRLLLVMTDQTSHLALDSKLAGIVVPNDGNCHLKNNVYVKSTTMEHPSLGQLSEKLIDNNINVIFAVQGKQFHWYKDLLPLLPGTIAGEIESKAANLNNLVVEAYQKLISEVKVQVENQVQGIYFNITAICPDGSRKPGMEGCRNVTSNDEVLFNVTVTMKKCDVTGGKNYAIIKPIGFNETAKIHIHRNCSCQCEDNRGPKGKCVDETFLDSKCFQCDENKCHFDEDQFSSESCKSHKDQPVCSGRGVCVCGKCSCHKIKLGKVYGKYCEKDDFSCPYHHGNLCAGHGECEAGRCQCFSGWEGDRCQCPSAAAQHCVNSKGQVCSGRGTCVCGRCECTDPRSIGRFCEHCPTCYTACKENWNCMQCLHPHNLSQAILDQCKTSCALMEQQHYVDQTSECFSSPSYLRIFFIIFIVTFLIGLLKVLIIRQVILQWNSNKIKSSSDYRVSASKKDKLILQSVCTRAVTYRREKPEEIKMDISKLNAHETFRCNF
T1 sequence (P06756 31-1048, chain 2 of 2): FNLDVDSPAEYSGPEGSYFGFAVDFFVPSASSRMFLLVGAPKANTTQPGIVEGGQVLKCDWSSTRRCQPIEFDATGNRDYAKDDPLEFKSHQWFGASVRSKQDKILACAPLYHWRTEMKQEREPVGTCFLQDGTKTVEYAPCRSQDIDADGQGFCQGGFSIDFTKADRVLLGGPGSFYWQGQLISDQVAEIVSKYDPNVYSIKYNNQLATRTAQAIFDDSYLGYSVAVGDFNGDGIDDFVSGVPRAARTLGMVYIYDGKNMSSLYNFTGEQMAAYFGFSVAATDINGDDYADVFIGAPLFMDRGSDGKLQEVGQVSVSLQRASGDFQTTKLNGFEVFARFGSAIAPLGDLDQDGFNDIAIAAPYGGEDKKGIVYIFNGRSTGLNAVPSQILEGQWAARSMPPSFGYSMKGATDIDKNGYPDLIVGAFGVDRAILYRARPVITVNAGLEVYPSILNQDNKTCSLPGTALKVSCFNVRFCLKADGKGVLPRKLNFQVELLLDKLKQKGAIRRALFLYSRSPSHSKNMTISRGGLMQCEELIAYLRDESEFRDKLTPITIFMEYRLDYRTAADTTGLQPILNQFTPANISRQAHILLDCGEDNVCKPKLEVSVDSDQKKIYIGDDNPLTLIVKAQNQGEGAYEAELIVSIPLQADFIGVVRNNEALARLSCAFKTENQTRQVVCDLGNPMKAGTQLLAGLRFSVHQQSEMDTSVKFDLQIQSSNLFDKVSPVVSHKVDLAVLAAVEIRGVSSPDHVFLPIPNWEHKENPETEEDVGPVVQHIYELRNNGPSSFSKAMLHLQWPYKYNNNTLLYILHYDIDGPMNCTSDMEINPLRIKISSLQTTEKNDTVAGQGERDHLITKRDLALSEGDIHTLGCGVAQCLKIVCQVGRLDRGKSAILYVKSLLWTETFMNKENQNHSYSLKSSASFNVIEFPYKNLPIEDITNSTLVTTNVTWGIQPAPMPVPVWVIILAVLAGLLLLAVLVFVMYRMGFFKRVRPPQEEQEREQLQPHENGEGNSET

| binding result | Binder |
| --- | --- |
| binds | Mab 9B2 (antibody, V domains shown, Mouse hybridoma antibody tested as clone supernatant; also called 9B2 mAb; clone 1) VH: QVQLQQSGAELAKPGASVKLSCKASGYTFTRYWMHWVKQRPGQGLEWIGHINPSSGYTKYNQKFKDKATLTADKSSSTAYMQLSSLTYEDSAVYYCAREVYYYGSSYGDFDYWGQGTTLTVSS VL: QIVLTQSPAIMSASPGEKVTISCSASSSVSYMYWYQQKPGSSPKPWIYRTSNLASGVPARFSGSGSGTSYSLTISSMEAEDAATYYCQQYHSYPLTFGAGTKLELK |
| binds | Mab 1G10G4 (antibody, V domains shown, Mouse hybridoma antibody tested as clone supernatant; also called 1G10G4 mAb; clone 3) VH: QVQLQQSGAELARPGASVKMSCKASGYTFTSYTMHWVKQRPGQGLEWIGYINPSSGYTKYNQKFKDKATLTADKSSSTAYMQLSSLTSEDSAVYYCARAEGLRAWFAYWGQGTLVTVSA VL: DIVMTQSQKFMSTSVGDRVSVTCKASQNVGTNVAWYQQKPGQSPKALIYSASYRYSGVPDHFTGSGSGTDFTLTIINVQSEDLAEYFCQQYNSYPYTFGGGTKLEIK |
